Results: patent publication US20090105562A1, “SYSTEM AND METHODS FOR SCREENING OR ANALYZING TARGETS” (TAIPEI VETERANS GENERAL HOSPITAL, priority 2007, published 2009)

B1: BDNF: BDNF recombinant protein (protein, UniProt P23560 19-247, looked up)
Neurotrophic factor BDNF …: APMKEANIRGQGGLAYPGVRTHGTLESVNGPKAGSRGLTSLADTFEHVIEELLDEDQKVRPNEENNKDADLYTSRVMLSSQVPLEPPLLFLLEEYKNYLDAANMSMRVRRHSDPARRGELSVCDSISEWVTAADKKTAVDMSGGTVTVLEKVPVSKGQLKQYFYETKCNPMGYTKEGCRGIDKRHWNSQCRTTQSYVRALTMDSKKRIGWRFIRIDTSCVCTLTIKRGR

Legend:
[1] = test system: PC-12 cells; test: DA and 5-HT in dialysate of PC-12 cells medium after NGF induction (HPLC-ED); assay type: cell-based; conditions: after induction with NGF of PC-12 cells
Description: (§1) A microdialysis system consists of a basic microdialysis pump (CMA/100, CMA, Stockholm, Sweden), a fraction collector (CMA/140, CMA), and a microdialysis probe cemented to a Petri dish (FIG. 3). The dialysis probe was made of a dialysis membrane 30 mm in length, 150 μm in outer diameter, and a nominal molecular weight cutoff of 13,000. Ringer solution (8.6 g/L NaCl, 0.3 g/L KCl, and 0.33 g/L CaCl2) was perfused through the probe at a flow rate of 2 μl/min. Microdialysate samples were collected every 10 min. Each microdialysate of 10 μl was injected manually into the chromatographic system and was assayed on the same sampling day. The Liquid chromatography and electrochemical detection contains a model HTEC-500 LC-ED system (Eicom, Kyoto, Japan), consisting of a three-electrode cell with Ag/AgCl as the reference electrode, a counter-electrode, and a graphite electrode as the working electrode, were used to measure dopamine (DA) and serotonin (5-HT). The experiment employed a graphite working electrode with a 25-μm gasket with the applied potential set at +450 mV versus Ag/AgCl. The column used for the separation of DA and 5-HT was a PP-ODS column (4.6×30 mm, Eicom) at room temperature (25° C.). […]

[2] = test system: neural stem cell; test: DA and 5-HT in dialysate of neural stem cell medium after NGF induction (microdialysis, HPLC-ED); assay type: cell-based; conditions: after induction with polyornithine/laminin-coating plate and NGF of neural stem cell
Description: as §1

[3] = test system: LPS-treated NSCs; test: LPS-induced apoptotic activity in NSCs, caspase 8 and 3 ELISA; assay type: cell-based, rat; conditions: vs only LPS-treated NSCs; p<0.05
Description: (§2) IM was purchased from Sigma Chem. Co., St Louis, Mo., USA. NSCs were seeded on 24-well plates at a density of 2×10^4 cells/well in medium, followed by methyl thiazol tetrazolium assay (MTT assay) (Sigma-Aldrich Co., St Louis, Mo., USA) for cell viability. NSCs were incubated with 0.25 mg/ml MTT for 4 hours at 37° C. and the reaction was terminated by the addition of 100% isopropanol. The amount of MTT fromazon product was determined using a microplate reader and the absorbance was measured at 560 nm (SpectraMax 250, Molecular Devices, Sunnyvale, Calif., USA). NSCs were exposed to 0, 1, 2, 5, 10, 20, 30, 40, 50, 100, 200, and 300 μM of IM for 1, 3, 5, and 7 days, respectively. The activities of caspases 8 and 3 (Medical and Biological Laboratories Co., Ltd., Nagoya, Japan), and the concentration of IL-6, IL-1 and TNF-α (Pharmingen, San Diego, Calif., USA) were determined by ELISA kits and quantified by reading at 490 nm (MRX; Dynatech Laboratories, Chantilly, Va., USA). Each individual sample was analyzed in triplicate.
(§3) Double-stranded, short interfering RNA (siRNA) of BDNF and Bcl-2 were chemically synthesized by Ambion Inc., Austin, Tex., USA). The sense and antisense sequences of BDNF were designed as follows: Sense: […]tt; Antisense: AGCTTAAAAAGAG CTGtt, starting from nucleotide 137 of the Bcl-2 sequence (accession number L14680). The sense and antisense sequences of Bcl-2 were designed as follows: Sense: GCGCUGGAUAUAACUUCUUtt; Antisense: AAGAAGUUAUAUC CAGCGCtt, starting from nucleotide 137 of the Bcl-2 sequence (accession number L14680). In this test, the siRNA control used was siRNA-Cy3 (QIAGEN; sense sequence: UUCUCCGAACGUGU CACGUdTdT-3′-Cy3 and the complement 5′-ACGUGACACGUUCGGAGAAdTdT-3′-Cy3) as an irrelevant control. The transfection of siRNA was performed using Lipofectamine 2000 (Invitrogen, Carlsbad, Calif., USA) according to the manufacturer's instructions. In brief, cells were harvested with 0.25% trypsin, 1 mM ethylenediaminetetraacetic acid (EDTA) in phosphate buffered saline (PBS) without Ca^2+ and Mg^2+, and plated in six-well plates at 10^5 per cm^2. Then 3.5 μl siRNA (100 μM solution) was mixed with 125 μl serum-free culture medium for 5 minutes at room temperature. During this incubation period, 5 μl of Lipofectamine 2000 was diluted in 125 μl serum-free culture medium. These two mixtures were combined, mixed gently, and incubated for 20 minutes at room temperature for complex formation. This 250 μl of siRNA-Lipofectamine mixture was then added into the cells in a final volume of 2.5 ml per well. The transfected cells were cultured and fed daily with fresh medium until they were assayed.

[4] = test system: LPS-treated NSCs; test: Cell survival rate of LPS-treated NSCs; assay type: cell-based, rat; conditions: vs only LPS-treated NSCs; LPS 100 ng/ml
Description: as §2
as §3, with “Then 3.5 μl siRNA (100 μM solution) was mixed with 125 μl serum-free culture medium for 5 minutes at room temperature. During this incubation period, 5 μl of Lipofectamine 2000 was diluted in 125 μl serum-free culture medium. These two mixtures were combined, mixed gently, and incubated for 20 minutes at room temperature for complex formation. This 250 μl of siRNA-Lipofectamine mixture was then added into the cells in a final volume of 2.5 ml per well. The transfected cells were cultured and fed daily with fresh medium until they were assayed.” left out

[5] = test system: LPS-treated NSCs; test: ELISA of IL-1β, IL-6 and TNF-α in LPS-treated NSCs; assay type: cell-based, rat; conditions: vs only LPS-treated NSCs; IM 3 μM; p<0.05
Description: as §2, §3

[6] = test system: Bcl-2; test: Bcl-2 protein expression in NSCs by western blot and immunocytochemistry; assay type: cell-based, rat; conditions: treatment with either agent alone
Description: After the treatment with IM, the cell lysates of the NSCs were collected and the concentration of protein was determined by using the Protein Assay kit (Bio-Rad, Hercules, Calif., USA). Cell extracts with sample buffer were boiled for 5 minutes and then separated by 10% SDS-PAGE gel. After electrophoresis, the gel was transferred onto a PVDF membrane for immunoblotting. The membrane was first blocked by incubation in non-fat milk at room temperature for 2 hours, then incubated with anti-Bcl-2 antibody (Upstate Biotechnology Inc, Waltham, Mass., USA), and anti-β actin (Chemicon International Inc, Temecula, Calif., USA) for 2 hours at room temperature, washed five times with Tris-Buffered Saline Tween-20 (TBST), and then incubated further at room temperature with horseradish peroxidase-conjugated secondary antibody for 2 hours. Then the membrane was washed six times with TBST and specific bands were made visible by chemiluminescence (Santa Cruz Biotechnology, Santa Cruz, Calif., USA).
as §3
An avidin-biotin complex method was used for the immunohistochemical staining in the differentiated NSCs. Following washes with the 3% hydrogen peroxide, sodium azide and antigens were retrieved using a microwave. Each slide was then treated with antibodies for Bcl-2 (Upstate Biotechnology, Waltham, Mass., USA), Nestin (Chemicon, Temecula, Calif., USA), 4′, 6-diamidino-2-phenylindole (DAPI; Chemicon, Temecula, Calif., USA) and MAP2 (Chemicon, Temecula, Calif., USA). Immunoreactive signals were detected with a mixture of biotinylated rabbit anti-mouse IgG and Fluoresave (Calbiochem, La Jolla, Calif., USA) under confocal microscopy (Olympus, FV300). Each individual sample was analyzed in triplicate. Furthermore, apoptotic cells were identified by the TUNEL method (In Situ Cell Death Detection Kit, POD, Roche Boehringer Mannheim Corp., IN, USA) as described in Chiou et al., J. Immunol. 167, 4098-4103, 2001. Briefly, the cells with cover slips were washed with 1× phosphate buffered saline (PBS), fixed with 4% of paraformaldehyde for 10 minutes, permeabilized with 0.1% of triton X-100 for 5 mins, and incubated with the TUNEL reagent provided for 1 hour. Chromogenic development was then applied with 3-amino-9-ethyl-carbazole, and slides were counterstained with H & E stain. […]

Molecule	5-HT concentration in dialysate ([1]; basal 0.18 ng/ml)	DA concentration in dialysate ([1]; basal 6.04 ng/ml)	5-HT concentration in dialysate ([2]; basal 0.18 ng/ml)	DA concentration in dialysate ([2]; basal 6.04 ng/ml)	apoptotic activities in LPS-treated NSCs [3]	cell survival rate in LPS-treated NSCs [4]	IL-1β production in LPS-treated NSCs [5]	IL-6 production in LPS-treated NSCs [5]	TNF-α production in LPS-treated NSCs [5]	Bcl-2 expression in NSCs [6]
NGF: NGF used to induce neural stem cells / PC-12 cells	2.94 ng/mL	50.06 ng/mL	2.84 ng/mL	46.9 ng/mL						
B1					significantly inhibited	significantly increases	significantly inhibited	significantly inhibited	significantly inhibited	activate
